# Measurements: PMC8811534
# Biological target: hAGO2 (human, UniProt Q9UKV8 1-859)
# Assay: EMSA
# hAGO2, sequence (Q9UKV8 whole entry): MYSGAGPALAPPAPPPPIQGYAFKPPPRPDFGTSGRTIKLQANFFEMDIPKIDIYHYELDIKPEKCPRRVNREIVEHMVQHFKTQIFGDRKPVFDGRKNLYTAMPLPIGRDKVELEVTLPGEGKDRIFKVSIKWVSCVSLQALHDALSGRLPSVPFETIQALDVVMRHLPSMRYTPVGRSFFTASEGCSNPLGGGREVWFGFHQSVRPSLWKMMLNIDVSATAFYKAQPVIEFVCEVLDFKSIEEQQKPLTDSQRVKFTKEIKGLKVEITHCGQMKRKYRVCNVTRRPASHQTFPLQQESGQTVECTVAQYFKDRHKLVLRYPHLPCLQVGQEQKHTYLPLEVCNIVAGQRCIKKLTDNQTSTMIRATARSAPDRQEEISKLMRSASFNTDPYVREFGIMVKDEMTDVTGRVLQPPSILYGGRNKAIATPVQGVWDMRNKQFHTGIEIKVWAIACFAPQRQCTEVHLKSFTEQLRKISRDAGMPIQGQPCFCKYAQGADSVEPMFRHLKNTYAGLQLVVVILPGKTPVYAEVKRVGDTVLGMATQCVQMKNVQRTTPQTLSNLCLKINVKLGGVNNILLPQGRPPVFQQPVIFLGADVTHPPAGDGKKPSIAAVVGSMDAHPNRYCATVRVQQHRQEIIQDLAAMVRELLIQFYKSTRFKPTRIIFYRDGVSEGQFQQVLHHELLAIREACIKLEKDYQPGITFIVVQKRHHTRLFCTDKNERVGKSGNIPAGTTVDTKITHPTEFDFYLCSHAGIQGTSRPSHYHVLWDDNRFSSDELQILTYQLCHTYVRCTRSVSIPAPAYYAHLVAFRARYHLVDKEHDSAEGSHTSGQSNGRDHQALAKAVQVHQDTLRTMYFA
binder,measurement,value
5'Cy5-HIS-SARS2-1 DNA duplex (dsDNA) DNA 1: AGCCTTTACCTCCATTAGCATAGACA DNA 2: TGTCTATGCTAATGGAGGTAAAGGCT,binding result,binds
